The values below come from the supplement of paper PMC9170038.

In this data set the test system is K4 kissing-loop RNA reporter. The experiment in a line: apparent KD of K4 kissing-loop reporter; higher = weaker reporter binding. The following applies: Eterna round: R107. The procedure: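 RNA-MaP round R107: designed RNA switches with theophylline, tryptophan, arginine or FMN aptamers are transcribed on-chip within common flanks. They are titrated with a labelled K4 kissing-loop RNA reporter in RNA-MaP buffer (100 mM Tris pH 7.5, 80 mM KCl, 4 mM MgCl2), without ligand or with the indicated ligand. Median apparent KD per design.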

[1] abbreviates: input ligand: theophylline 20 uM.
Setting [2] is: input ligand: tryptophan 2.4 mM.
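Also: bound reporter read as fluorescence of individual clusters on recovered sequencing chips by microscopy, with normalized cluster intensities fitted with a binding model.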

“AAGUAGCUCUCGGCCGCCACUCCUCAGUGAUGUUGAGAUAUUAAGAGACAAUUGUCUCAUAUAAAGAGGACCGGGAGAGCUACAA [AK5 SS Tryptophan B]”: the “apparent KD of K4 kissing-loop reporter” value was determined as 445 nM (input ligand: FMN 200 uM); 384 nM (input ligand: arginine 13.2 mM); 439 nM (input ligand: none); 460 nM under setting [1]; 133 nM under setting [2].
For “UGUCAUUGGUCGGCCGCCACUUGAAGGUCAAAGACCAUAGAGUGAUGUUCUAAGACGAAAGUCACGAGGACCGGGACCGAUGACU [TrypBS 4 #SwitchBubble #K4Middle]” the same measures were 57.7 nM, 195 nM, 114 nM, 351 nM and 1130 nM.
Consider “GUGCGGCUAGUGAUGUUGGUUGCGUGGGAAGGAGCGCAGAAACAUGCAGGUAGGUCGCCCACAUCUCGGAUAAGAGACUAAUUCA [Letiisve]”, for which the “apparent KD of K4 kissing-loop reporter” value amounted to 606 nM (input ligand: FMN 200 uM); 182 nM (input ligand: arginine 13.2 mM); 168 nM (input ligand: none); 220 nM under setting [1]; 307 nM under setting [2].
For the sequence “CUUCGUAAAGGCCCAGUGAUGUUGGGCACUCGAGGACCGGUACGGCCGCCACUCGCUCCCUAAGUCGCGUGCGUGGGCCACCGCC [Anala]”, the “apparent KD of K4 kissing-loop reporter” value was 115 nM (input ligand: FMN 200 uM); 97 nM (input ligand: arginine 13.2 mM); 99.1 nM (input ligand: none); 94.5 nM under setting [1]; 104 nM under setting [2].
As to “GGAUAGGACAGAGGAUAUGGUGCUAGGCAAGAAUAACUUGUCUAGCAAUCCAUGAGGAGUGAUGUUCCAGAAGGCUGUCCUAUCG [FmnBX 3 - #SwitchBubble #StraticStem #DoubleMagnetSystem]”, the “apparent KD of K4 kissing-loop reporter” value is, setting by setting: (input ligand: FMN 200 uM) 440 nM; (input ligand: arginine 13.2 mM) 132 nM; (input ligand: none) 137 nM; under setting [1], 136 nM; under setting [2], 118 nM.
For the sequence “UGGAGUUGACGAAAAGUCAACUCCUGAGAUACCAGUGACGAAAGUCACCCUUGGCAGCUCACUGCCAGUGAUGUUGGUAUAUAAA [#OpenEnded 4]”, the “apparent KD of K4 kissing-loop reporter” value by setting is: (input ligand: FMN 200 uM) 82.6 nM; (input ligand: arginine 13.2 mM) 71.4 nM; (input ligand: none) 61 nM; under setting [1], 146 nM; under setting [2], 124 nM.
For “AAGAAGGUCAAAGACCUUCGUGCACGUGAUACCAGUCGCGAAAGCGACCCUUGGCAGCACGGCAGUGAUGUUGCCAAGUGCACAA [#12 K4 Theophylline A Same State]” the same measures were 407 nM, 249 nM, 498 nM, 664 nM and 545 nM.
For “AGUGCACUGUCAGGAUAUAUACAGUGAUGUUGUGUAUGUCAGCAAGUCAAAGACUUGCUAUUUUGUAUAGAAGGGACUGUGUACA [whbob_Ex_FMNB__2th222]” the same measures were 574 nM, 258 nM, 294 nM, 276 nM and 286 nM.
For “GGUCGAGUGAUGUUCGAUGUAAUGCAUUCAGAGGAUAUAGGAUUGGCUAGAAGGCUGAAUCGUUCUUCGAGUGAUGUUCGAGGAU [Same State FMN A GF 7]” the same measures were 286 nM, 141 nM, 213 nM, 244 nM and 183 nM.
In the case of “CAUCCUACACCUCAAGCAGUGAUGUUGCUACGAGGACCGGUACGGCCGCCACUCGUUUAAGCAUGGAUAUUAGCUGUGCUGACUA [theeternabot_exclusion_KL_Trp_A_16]”, the “apparent KD of K4 kissing-loop reporter” value (input ligand: FMN 200 uM) came to 468 nM; the “apparent KD of K4 kissing-loop reporter” value (input ligand: arginine 13.2 mM) is 458 nM; the “apparent KD of K4 kissing-loop reporter” value (input ligand: none) was 461 nM; the “apparent KD of K4 kissing-loop reporter” value under setting [1] turned out to be 576 nM; the “apparent KD of K4 kissing-loop reporter” value under setting [2] is 439 nM.
Taken in the same sequence, the figures for “GUACGCUUCCGAGUGAUGUUCGGUAAUAGUUAGGAUAUCGCUUUUGCGAGAAGGAACUGAAUGAGGAAACUCGUUCGAAGUGUAC [FMN A 17]” were 406 nM, 336 nM, 540 nM, 396 nM and 459 nM.
For “UUGAGGGAGAAUUAUAGUGAUGUUAUAAAGAAGGAUAUCCAAAGAAGGAGAAGGUCUAAGAGGGAAGGGAGGGAGGGAGGGAGGG [ExFMNA.C]” the same measures were 380 nM, 131 nM, 281 nM, 97.1 nM and 202 nM.
For “AAGGGCGGGACUUUCUCGCCGGAUAGAGAUACCAGCCCAGCAAAGGGCCCUUGGCAGCUCACUGACCUCAGUGAUGUUGAGGUUC [Soerrainat]” the same measures were 295 nM, 240 nM, 242 nM, 199 nM and 266 nM.
Consider “UACGUUUUAUUAACACUAAAUACAACUGAAGGAGCGACAAUAAAGUCAGGUAGGUCGCAGAAUUAAUGAGUGAUGUUCAUUUUUA [JR_ExcArginiA_Sub015]”, for which the “apparent KD of K4 kissing-loop reporter” value is, setting by setting: (input ligand: FMN 200 uM) 56.2 nM; (input ligand: arginine 13.2 mM) 117 nM; (input ligand: none) 65.9 nM; under setting [1], 92 nM; under setting [2], 48.1 nM.
Consider “GGGAGUAGUGCGGCCGCCACUGAGAAAGUAGAAGAAUAUAGUGAUGUUAUAUAGGAAUAAAAGAACAGGACCGGGCAUUAGAUUU [SSTRyptB.U]”, for which the “apparent KD of K4 kissing-loop reporter” value (input ligand: FMN 200 uM) turned out to be 230 nM; the “apparent KD of K4 kissing-loop reporter” value (input ligand: arginine 13.2 mM) was 214 nM; the “apparent KD of K4 kissing-loop reporter” value (input ligand: none) stood at 230 nM; the “apparent KD of K4 kissing-loop reporter” value under setting [1] came to 203 nM; the “apparent KD of K4 kissing-loop reporter” value under setting [2] was determined as 174 nM.
Take “GGGUUCUCGUCGGCCGCCACUUCAUGUAUUUAGCAGGCUUCGCUCAGACUCAGUGAUGUUGGGUAAAGGACCGGGACACAUUCAA [theeternabot_exclusion_KL_Trp_B_50]”: the “apparent KD of K4 kissing-loop reporter” value runs as follows: (input ligand: FMN 200 uM) 372 nM; (input ligand: arginine 13.2 mM) 245 nM; (input ligand: none) 342 nM; under setting [1], 304 nM; under setting [2], 310 nM.
